Data taken from the RNAGym collection of RNA variant scans (doi:10.7554/elife.80360).

B1: Twister Ribozyme (parent)
chain: AACACUGCCAAUGCCGGUCCCAAGCCCGGAUAAAAGUGGAGGGGGCGG

Variants of: B1
Experiment: self-cleavage, relative activity (ratio to wild type); higher = more cleavage; co-transcriptional

Variant	self-cleavage
AACACUGCCAAUGCCGGUCCCAAGCCCGGAGAAAAGCGGAGGGGGCGG [U31G U37C]	0.634
AACACUGCCAAUGCCGGUCCCAAGCCCGGAUCAAAGUGGAGGGAGCGG [A32C G44A]	0.881
AACACUGCCAAUGCCGGUCCCAAGCCCGGAUCAAAGUGGAGGGUGCGG [A32C G44U]	0.936
AACACUGCCAAUGCCGGUCCCAAGCCCGGAUCAAAGUGGAGGGCGCGG [A32C G44C]	1.03
AACACUGCCAAUGCCGGUCCCAAGCCCGGAUUAAAGUGGAGGGGCCGG [A32U G45C]	0.506
AACACUGCCAAUGCCGGUCCCAAGCCCGGAUUAAAGUGGAGGGGACGG [A32U G45A]	0.823
AACACUGCCAAUGCCGGUCCCAAGCCCGGAUUAAAGUGGAGGGGGCGA [A32U G48A]	0.942
AACACUGCCAAUGCCGGUCCCAAGCCCGGAUGAAAGUGGAGGGAGCGG [A32G G44A]	0.929
AACACUGCCAAUGCCGGUCCCAAGCCCGGAUGAAAGUGGAGGGCGCGG [A32G G44C]	0.907
AACACUGCCAAUGCCGGUCCCAAGCCCGGAUUCAAGUGGAGGGGGCGG [A32U A33C]	0.895
AACACUGCCAAUGCCGGUCCCAAGCCCGGAUUUAAGUGGAGGGGGCGG [A32U A33U]	0.938
AACACUGCCAAUGCCGGUCCCAAGCCCGGAUAGAAGUGGAGGCGGCGG [A33G G43C]	0.144
AACACUGCCAAUGCCGGUCCCAAGCCCGGAUAGAAGUGGAGGAGGCGG [A33G G43A]	0.268
AACACUGCCAAUGCCGGUCCCAAGCCCGGAUUAAAGUGGUGGGGGCGG [A32U A40U]	0.193
AACACUGCCAAUGCCGGUCCCAAGCCCGGAUCACAGUGGAGGGGGCGG [A32C A34C]	0.329
AACACUGCCAAUGCCGGUCCCAAGCCCGGAUACAAGAGGAGGGGGCGG [A33C U37A]	0.447
AACACUGCCAAUGCCGGUCCCAAGCCCGGAUAGAAGUGGAGUGGGCGG [A33G G42U]	0.17
AACACUGCCAAUGCCGGUCCCAAGCCCGGAUAGAAGUGGAGCGGGCGG [A33G G42C]	0.268
AACACUGCCAAUGCCGGUCCCAAGCCCGGAUAGAAGUUGAGGGGGCGG [A33G G38U]	0.861
AACACUGCCAAUGCCGGUCCCAAGCCCGGAUCAAAGUGCAGGGGGCGG [A32C G39C]	0.079
AACACUGCCAAUGCCGGUCCCAAGCCCGGAUCAAAGUGUAGGGGGCGG [A32C G39U]	0.235
AACACUGCCAAUGCCGGUCCCAAGCCCGGAUCAAAGUGAAGGGGGCGG [A32C G39A]	0.586
AACACUGCCAAUGCCGGUCCCAAGCCCGGAUGAAAGUGGAUGGGGCGG [A32G G41U]	0.609
AACACUGCCAAUGCCGGUCCCAAGCCCGGAUGAAAGUGGACGGGGCGG [A32G G41C]	0.211
AACACUGCCAAUGCCGGUCCCAAGCCCGGAUGAAAGUGGAAGGGGCGG [A32G G41A]	0.518
AACACUGCCAAUGCCGGUCCCAAGCCCGGAUGGAAGUGGAGGGGGCGG [A32G A33G]	0.654
AACACUGCCAAUGCCGGUCCCAAGCCCGGAUCAACGUGGAGGGGGCGG [A32C A35C]	0.911

Variant	self-cleavage
AACACUGCCAAUGCCGGUCCCAAGCCCGGAUCAAUGUGGAGGGGGCGG [A32C A35U]	1.05
AACACUGCCAAUGCCGGUCCCAAGCCCGGAUUAAAGUAGAGGGGGCGG [A32U G38A]	0.85
AACACUGCCAAUGCCGGUCCCAAGCCCGGAUUAAAGUUGAGGGGGCGG [A32U G38U]	0.94
AACACUGCCAAUGCCGGUCCCAAGCCCGGAUUAAAGUGGAGGGUGCGG [A32U G44U]	0.885
AACACUGCCAAUGCCGGUCCCAAGCCCGGAUUAAAGUGGAGGGAGCGG [A32U G44A]	0.919
AACACUGCCAAUGCCGGUCCCAAGCCCGGAUGAAAGUGGAGGGGGCCG [A32G G47C]	0.473
AACACUGCCAAUGCCGGUCCCAAGCCCGGAUAGAAGUGGAGGGGACGG [A33G G45A]	0.803
AACACUGCCAAUGCCGGUCCCAAGCCCGGAUUAAACUGGAGGGGGCGG [A32U G36C]	0.435
AACACUGCCAAUGCCGGUCCCAAGCCCGGAUUAAAUUGGAGGGGGCGG [A32U G36U]	0.148
AACACUGCCAAUGCCGGUCCCAAGCCCGGAUACAAGUGGAAGGGGCGG [A33C G41A]	0.309
AACACUGCCAAUGCCGGUCCCAAGCCCGGAUACAAGUGGACGGGGCGG [A33C G41C]	0.151
AACACUGCCAAUGCCGGUCCCAAGCCCGGAUGAACGUGGAGGGGGCGG [A32G A35C]	0.914
AACACUGCCAAUGCCGGUCCCAAGCCCGGAUCAAAGAGGAGGGGGCGG [A32C U37A]	0.732
AACACUGCCAAUGCCGGUCCCAAGCCCGGAUCAAAGCGGAGGGGGCGG [A32C U37C]	0.494
AACACUGCCAAUGCCGGUCCCAAGCCCGGAUCAAAGUGGAGGGGGAGG [A32C C46A]	0.837
AACACUGCCAAUGCCGGUCCCAAGCCCGGAUCAAAGUGGAGGGGGGGG [A32C C46G]	1.03
AACACUGCCAAUGCCGGUCCCAAGCCCGGAUGAAAGUGGAGGCGGCGG [A32G G43C]	0.0899
AACACUGCCAAUGCCGGUCCCAAGCCCGGAUCAAAAUGGAGGGGGCGG [A32C G36A]	0.473
AACACUGCCAAUGCCGGUCCCAAGCCCGGAUCAAACUGGAGGGGGCGG [A32C G36C]	0.283
AACACUGCCAAUGCCGGUCCCAAGCCCGGAUACAAGUGGAGGAGGCGG [A33C G43A]	0.17
AACACUGCCAAUGCCGGUCCCAAGCCCGGAUUAACGUGGAGGGGGCGG [A32U A35C]	1.01
AACACUGCCAAUGCCGGUCCCAAGCCCGGAUUAAGGUGGAGGGGGCGG [A32U A35G]	0.746
AACACUGCCAAUGCCGGUCCCAAGCCCGGAUGAAAGUGGAGGGGUCGG [A32G G45U]	0.668
AACACUGCCAAUGCCGGUCCCAAGCCCGGAUGAAAGUGGAGGGGACGG [A32G G45A]	0.921
AACACUGCCAAUGCCGGUCCCAAGCCCGGAUUAAAGUGGAGGGGGUGG [A32U C46U]	1.02
AACACUGCCAAUGCCGGUCCCAAGCCCGGAUAGAAGUGGGGGGGGCGG [A33G A40G]	0.195
AACACUGCCAAUGCCGGUCCCAAGCCCGGAUAGAAGUGGCGGGGGCGG [A33G A40C]	0.17
